# Source: PMC2424043, “Organelle-specific isoenzymes of plant V-ATPase as revealed by in vivo-FRET analysis” (BMC Cell Biology, 2008)
# Read-outs that look alike come from different tables or passages of the source.
# T1: VHA-c"1 (V-ATPase proteolipid subunit c", isoform 1) fused to CFP or YFP (A. thaliana, UniProt Q9SZY7 1-180)
# T1 construct: VHA-c"1, A. thaliana, At4g32530, open reading frame without the stop codon; One molecule for the CFP and the YFP fusion; also called VHA-c"-CFP; VHA-c"-YFP; source: A. thaliana mesophyll protoplasts, transiently transfected, in living cells; not shown: CFP or YFP, C-terminal, kept
# T1 sequence (looked up): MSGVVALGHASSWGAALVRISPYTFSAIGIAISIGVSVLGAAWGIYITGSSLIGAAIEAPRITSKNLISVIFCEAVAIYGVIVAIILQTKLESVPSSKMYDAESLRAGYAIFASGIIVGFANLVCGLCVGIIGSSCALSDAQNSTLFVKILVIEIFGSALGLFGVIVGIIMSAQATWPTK
# B1: VHA-c"_(trunc) (third and fourth helices of VHA-c"1) fused to CFP (domain or fragment, A. thaliana, UniProt Q9SZY7 88-180, looked up)
# chain: QTKLESVPSSKMYDAESLRAGYAIFASGIIVGFANLVCGLCVGIIGSSCALSDAQNSTLFVKILVIEIFGSALGLFGVIVGIIMSAQATWPTK
# notes: VHA-c"1 aa 88-180 (helices 3 and 4), A. thaliana; Intermediate construct of the hybrid in vector 35S-CFP-C; fused to the C-terminus of the fluorescent protein; also called truncated VHA-c"; VHA-c"1_(trunc); source: A. thaliana mesophyll protoplasts, transiently transfected, in living cells; not shown: CFP, N-terminal, kept
# B2: VHA-e2 (V-ATPase subunit e, isoform 2) fused to CFP or YFP (natural protein, A. thaliana, UniProt Q9SZ13 1-70, looked up)
# chain: MAFVVTSLIFAVVGIIASICTRICFNKGPSTNLLHLTLVITATVCCWMMWAIVYIAQMNPLIVPILSEVE
# notes: VHA-e2, A. thaliana, At4g26710, open reading frame without the stop codon; One molecule for the CFP and the YFP fusion; also called VHA-e isoform 2; VHA-e2-CFP; source: A. thaliana mesophyll protoplasts, transiently transfected, in living cells; not shown: CFP or YFP, C-terminal, kept
# B3: VHA-c_(trunc) (third and fourth helices of VHA-c3) fused to CFP (domain or fragment, A. thaliana, UniProt P0DH93 80-164, looked up)
# chain: NPKAKSYYLFDGYAHLSSGLACGLAGLSAGMAIGIVGDAGVRANAQQPKLFVGMILILIFAEALALYGLIVGIILSSRAGQSRAE
# notes: VHA-c aa 80-164 (helices 3 and 4 of VHA-c3), A. thaliana; Intermediate construct of the hybrid in vector 35S-CFP-C; also called truncated VHA-c; truncated VHA-c-CFP; source: A. thaliana mesophyll protoplasts, transiently transfected, in living cells; not shown: CFP, C-terminal, kept
# B4: VHA-c3 (V-ATPase proteolipid subunit c, isoform 3) fused to CFP or YFP (natural protein, A. thaliana, UniProt P0DH93 1-164, looked up)
# chain: MSTFSGDETAPFFGFLGAAAALVFSCMGAAYGTAKSGVGVASMGVMRPELVMKSIVPVVMAGVLGIYGLIIAVIISTGINPKAKSYYLFDGYAHLSSGLACGLAGLSAGMAIGIVGDAGVRANAQQPKLFVGMILILIFAEALALYGLIVGIILSSRAGQSRAE
# notes: VHA-c3, A. thaliana, At4g38920, open reading frame without the stop codon; One molecule for the CFP and the YFP fusion; vectors 35S-CFP-NosT and 35S-YFP-NosT; List of constructs in Additional file 4; also called VHA-c-CFP; VHA-c-YFP; source: A. thaliana mesophyll protoplasts, transiently transfected, in living cells; not shown: CFP or YFP, C-terminal, kept
# B5: VHA-e1 (V-ATPase subunit e, isoform 1) fused to CFP or YFP (natural protein, A. thaliana, UniProt Q9FLN5 1-70, looked up)
# chain: MGFLITTLIFVVVGIIASLCVRICCNRGPSTNLLHLTLVITATVCCWMMWAIVYIAQMNPLIVPILSETE
# notes: VHA-e1, A. thaliana, At5g55290, open reading frame without the stop codon; One molecule for the CFP and the YFP fusion; also called VHA-e isoform 1; AtVHA-e1; source: A. thaliana mesophyll protoplasts, transiently transfected, in living cells; not shown: CFP or YFP, C-terminal, kept
# Key:
# Assay in all cases: FRET or BRET; in vivo FRET by sensitized acceptor emission (confocal laser scanning microscopy) in co-transfected A. thaliana mesophyll protoplasts; CFP fusion as donor, YFP fusion as acceptor; a FRET value of 8-10% is taken as background
# [1] = target: VHA-a-YFP (Mesembryanthemum crystallinum V-ATPase subunit a fused to YFP) (Mesembryanthemum crystallinum)
# [2] = target: T1, VHA-c"1 (V-ATPase proteolipid subunit …); conditions: partners not purified
# [3] = target: B4; conditions: partners not purified
# [4] = target: VHA-a-YFP (Mesembryanthemum crystallinum V-ATPase subunit a fused to YFP) (Mesembryanthemum crystallinum); remark: listed apart in the source
# [5] = target: the molecule itself
Molecule,FRET efficiency [1],FRET efficiency [2] [%],FRET efficiency [3] [%],FRET efficiency [4] [%],FRET efficiency [5] [%]
VHA-A-CFP (V-ATPase catalytic subunit A fused to CFP) (from UniProt O23654 1-623) (natural protein),44.8,,,,
B1,,14.8,,,
B2,,20,~20,20,
B3,,46.2,40.3,40.2,
B4,,,,,20.8
B5,,,~20,20,
